US20030105278A1 (MERK, published 2003)
Bridges are numbered along the chain shown (N, C = ends). Where no end group is shown, it is not given here.

B1: MCH analog SEQ. ID. NO. 65 (position 13: (2′)Nal) (peptide)
peptide: RCMLGRVXRPC
modifications: (2′)-naphthylalanine at position 13; N-terminal acetyl, C-terminal amide, Cys-Cys disulfide as in SEQ. ID. NO. 7
B2: MCH analog SEQ. ID. NO. 66 (position 13: Phe(pF)) (peptide)
peptide: RCMLGRVXRPC
modifications: p-fluoro-phenylalanine at position 13; N-terminal acetyl, C-terminal amide, Cys-Cys disulfide as in SEQ. ID. NO. 7
B3: MCH analog SEQ. ID. NO. 67 (position 13: Phe(pNH2)) (peptide)
peptide: RCMLGRVXRPC
modifications: Phe(pNH2) at position 13; N-terminal acetyl, C-terminal amide, Cys-Cys disulfide as in SEQ. ID. NO. 7
B4: MCH analog SEQ. ID. NO. 68 (position 13: Phe(pCOOH)) (peptide)
peptide: RCMLGRVXRPC
modifications: Phe(pCOOH) at position 13; N-terminal acetyl, C-terminal amide, Cys-Cys disulfide as in SEQ. ID. NO. 7
B5: MCH analog SEQ. ID. NO. 69 (position 13: Cha) (peptide)
peptide: RCMLGRVXRPC
modifications: Cha (cyclohexylalanine) at position 13; N-terminal acetyl, C-terminal amide, Cys-Cys disulfide as in SEQ. ID. NO. 7
B6: MCH analog SEQ. ID. NO. 16 (D-Cys^7) (peptide)
peptide: RXMLGRVYRPC
modifications: D-Cys^7; N-terminal acetyl, C-terminal amide, Cys-Cys disulfide as in SEQ. ID. NO. 7
B7: MCH analog SEQ. ID. NO. 24 (D-Cys^16) (peptide)
peptide: RCMLGRVYRPX
modifications: D-Cys^16; N-terminal acetyl, C-terminal amide, Cys-Cys disulfide as in SEQ. ID. NO. 7
B8: MCH analog SEQ. ID. NO. 31 (position 6: Ac-Ala) (peptide)
peptide: Ac-ACMLGRVYRPC-NH2
modifications: disulfide 2-11
SMILES: CSCC[C@@H]1NC(=O)[C@@H](NC(=O)[C@H](C)NC(C)=O)CSSC[C@@H](C(N)=O)NC(=O)[C@@H]2CCCN2C(=O)[C@H](CCCNC(=N)N)NC(=O)[C@H](Cc2ccc(O)cc2)NC(=O)[C@H](C(C)C)NC(=O)[C@H](CCCNC(=N)N)NC(=O)CNC(=O)[C@H](CC(C)C)NC1=O
notes: ID; NO; 7 peptide; MCH position numbering
B9: MCH analog SEQ. ID. NO. 33 (position 6: Ac-Pro) (peptide)
peptide: PCMLGRVYRPC
modifications: Ac-Pro at position 6 (N-terminal acetyl); C-terminal amide, Cys-Cys disulfide as in SEQ. ID. NO. 7
notes: as for B8
B10: MCH analog SEQ. ID. NO. 34 (position 6: Ac-Asn) (peptide)
peptide: NCMLGRVYRPC
modifications: Ac-Asn at position 6 (N-terminal acetyl); C-terminal amide, Cys-Cys disulfide as in SEQ. ID. NO. 7
notes: as for B8
B11: MCH analog SEQ. ID. NO. 35 (position 6: Ac-Ser) (peptide)
peptide: SCMLGRVYRPC
modifications: Ac-Ser at position 6 (N-terminal acetyl); C-terminal amide, Cys-Cys disulfide as in SEQ. ID. NO. 7
notes: as for B8
B12: MCH analog SEQ. ID. NO. 36 (position 6: Ac-Glu) (peptide)
peptide: ECMLGRVYRPC
modifications: Ac-Glu at position 6 (N-terminal acetyl); C-terminal amide, Cys-Cys disulfide as in SEQ. ID. NO. 7
notes: as for B8
B13: MCH analog SEQ. ID. NO. 37 (position 6: H) (peptide)
peptide: H-CMLGRVYRPC-NH2
modifications: disulfide 1-10
notes: as for B8
B14: MCH analog SEQ. ID. NO. 38 (position 6: Ac) (peptide)
peptide: Ac-CMLGRVYRPC-NH2
modifications: disulfide 1-10
SMILES: CSCC[C@@H]1NC(=O)[C@@H](NC(C)=O)CSSC[C@@H](C(N)=O)NC(=O)[C@@H]2CCCN2C(=O)[C@H](CCCNC(=N)N)NC(=O)[C@H](Cc2ccc(O)cc2)NC(=O)[C@H](C(C)C)NC(=O)[C@H](CCCNC(=N)N)NC(=O)CNC(=O)[C@H](CC(C)C)NC1=O
notes: as for B8
B15: MCH analog SEQ. ID. NO. 39 (position 6: Arg) (peptide)
peptide: RCMLGRVYRPC-NH2
modifications: disulfide 2-11 (inferred)
notes: as for B8
B16: MCH analog SEQ. ID. NO. 41 (position 6: Ac-D-Arg) (peptide)
peptide: XCMLGRVYRPC
modifications: Ac-D-Arg at position 6; C-terminal amide, Cys-Cys disulfide as in SEQ. ID. NO. 7
notes: ID; NO; 7 peptide; MCH position numbering; 15 (D-Arg^6)
B17: MCH analog SEQ. ID. NO. 42 (position 6: Ac-D-Nle) (peptide)
peptide: XCMLGRVYRPC
modifications: Ac-D-Nle at position 6; C-terminal amide, Cys-Cys disulfide as in SEQ. ID. NO. 7
notes: as for B8
B18: MCH analog SEQ. ID. NO. 45 (position 6: Ac-D-Ser) (peptide)
peptide: XCMLGRVYRPC
modifications: Ac-D-Ser at position 6; C-terminal amide, Cys-Cys disulfide as in SEQ. ID. NO. 7
notes: as for B8
B19: MCH analog SEQ. ID. NO. 47 (position 10: Ala) (peptide)
peptide: RCMLARVYRPC
modifications: N-terminal acetyl, C-terminal amide, Cys-Cys disulfide as in SEQ. ID. NO. 7
notes: as for B8
B20: MCH analog SEQ. ID. NO. 48 (position 10: Leu) (peptide)
peptide: RCMLLRVYRPC
modifications: N-terminal acetyl, C-terminal amide, Cys-Cys disulfide as in SEQ. ID. NO. 7
notes: as for B8

Each binder was assayed against T1, human MCH receptor expressed from the open reading frame cDNA SEQ. ID. NO. 1 in 293-AEQ17 cells (human, UniProt Q99705 1-353) (assay: cell-based or functional assay).
T1 sequence (Q99705 whole entry): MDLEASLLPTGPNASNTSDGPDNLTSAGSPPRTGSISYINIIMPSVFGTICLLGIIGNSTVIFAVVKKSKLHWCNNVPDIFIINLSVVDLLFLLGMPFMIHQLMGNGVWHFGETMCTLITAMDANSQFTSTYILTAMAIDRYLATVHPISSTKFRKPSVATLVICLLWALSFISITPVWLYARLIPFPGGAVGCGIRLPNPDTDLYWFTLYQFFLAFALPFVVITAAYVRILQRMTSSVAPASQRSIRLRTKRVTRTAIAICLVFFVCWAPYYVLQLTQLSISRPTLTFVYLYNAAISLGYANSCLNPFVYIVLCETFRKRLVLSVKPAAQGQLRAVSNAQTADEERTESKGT
For DFDMLRCMLGRVYRPCWQV (disulfide 7-16) [mammalian MCH (SEQ. ID. NO. 11)], the Activation % was 100%. B1 gave an Activation % of 105%. With B2 the Activation % was 98%. B3 was tested, and the Activation % was 88%. In the case of B4, the “EC50” value is reported as greater than 10000 nM. Binder B5 has an Activation % of 93%.

Molecular target: T1, human MCH receptor expressed from the …
Assay: cell-based or functional assay
Remark: another data set of the same source
Work on DFDMLRCMLGRVYRPCWQV (disulfide 7-16) [mammalian MCH (SEQ. ID. NO. 11)] yielded an Activation % of 100%. B6 was tested, and the Activation % was 34%. B7 showed an Activation % of 76%.

The binders below were run against T2, human MCH receptor (membranes from a stable CHO or HEK-293 cell line) (human, UniProt Q99705 1-353) (assay: competition vs [125I]-human MCH (Phe13,Tyr19); human MCH receptor cell membranes (Example 3)).
T2 construct: whole, on cells; also called cloned human MCH receptor (CHO clone)
T2 sequence (Q99705 whole entry): as above
Binder B8 has an IC50 of 27 nM. B9 gave an IC50 of 3.4 nM. B10 gave an IC50 of 2.6 nM. B11 showed an IC50 of 4.5 nM. B12 gave an IC50 of 19 nM. In the case of B13, the IC50 is reported as 12 nM. B14 was tested, and the IC50 was 1.6 nM. Binder B15 has an IC50 of 0.13 nM. Binder B16 has an IC50 of 0.46 nM. Work on B17 yielded an IC50 of 1.2 nM. B18 showed an IC50 of 2.3 nM.

Molecular target: T1, human MCH receptor expressed from the …
Assay: cell-based or functional assay
Remark: another data set of the same source
Binder DFDMLRCMLGRVYRPCWQV (disulfide 7-16) [mammalian MCH (SEQ. ID. NO. 11)] has an Activation % of 100%.

Molecular target: T2, human MCH receptor (membranes from a …)
Assay: competition vs [125I]-human MCH (Phe13,Tyr19); human MCH receptor cell membranes (Example 3)
Remark: another data set of the same source
In the case of B19, the IC50 is reported as 0.59 nM. For B20, the IC50 was 0.06 nM.

Molecular target: T1, human MCH receptor expressed from the …
Assay: cell-based or functional assay
Remark: another data set of the same source
DFDMLRCMLGRVYRPCWQV (disulfide 7-16) [mammalian MCH (SEQ. ID. NO. 11)] was tested, and the Activation % was 100%.

Molecular target: T1, human MCH receptor expressed from the …
Assay: cell-based or functional assay
Remark: another data set of the same source
For DFDMLRCMLGRVYRPCWQV (disulfide 7-16) [mammalian MCH (SEQ. ID. NO. 11)], the “% Activation at 10 µM” value was 100%.

Molecular target: T1, human MCH receptor expressed from the …
Assay: cell-based or functional assay
Remark: another data set of the same source
With B19 the Activation % was 104% and the “EC50” value was 31 nM. In the case of B20, the Activation % is reported as 106% and the “EC50” value is reported as 23 nM. Binder DFDMLRCMLGRVYRPCWQV (disulfide 7-16) [mammalian MCH (SEQ. ID. NO. 11)] has an Activation % of 100%.

Molecular target: T1, human MCH receptor expressed from the …
Assay: cell-based or functional assay
Remark: another data set of the same source
For B8, the Activation % was 135% and the “EC50” value was 114 nM. B9 was tested, and the Activation % was 133% and the “EC50” value was 59 nM. With B10 the Activation % was 96% and the “EC50” value was 150 nM. For B11, the Activation % was 120% and the “EC50” value was 207 nM. With B12 the Activation % was 113% and the “EC50” value was 935 nM. DFDMLRCMLGRVYRPCWQV (disulfide 7-16) [mammalian MCH (SEQ. ID. NO. 11)] was tested, and the Activation % was 100%. For B13, the Activation % was 120% and the “EC50” value was 809 nM. For B14, the Activation % was 82% and the “EC50” value was 144 nM. With B15 the Activation % was 106% and the “EC50” value was 14 nM. B16 was tested, and the Activation % was 86% and the “EC50” value was 45 nM. In the case of B17, the Activation % is reported as 97% and the “EC50” value is reported as 110 nM. B18 was tested, and the Activation % was 93%.
